From the supplement of paper PMC6755084

B1: minF1; the commonest letter at each place (parent)
chain: GAGACCGCAACTGAAAAGTTGTTATCAGAAATGGATGGGTTGAATTTCTGCACGTAGAAGCAAAAGGC

Variants of: B1
Assay: fraction ligated after 30 min (ligated reads / total reads); higher = more ligase activity
Conditions: with F1*subA RNA substrate (template-directed ligation), 42 °C
In short: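 Fraction ligated for every variant was calculated as the share of total reads that came from ligated RNA. Minimized ligase ribozyme variants were made from oligo-pool templates by PCR amplification, T7 transcription and gel purification. After gel separation of ligated and unligated RNAs, reverse transcription with barcoded primers and MiSeq sequencing followed. Only core bases at quality ≥30 passed filtering.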

Variant	fraction ligated
A31T G33A	0.755
A31T G33T	0.467
A31T G33C	0.689
G34C A43T	0.0056
G34C A43C	0.00266
G34C A43G	0.00118
G33T G37A	0.00704
G33T G37C	0.00397
G33T G37T	0.00922
G33A	0.817
G33C	0.804
G33T	0.605
A35G A44C	0.0421
A35G A44T	0.105
A35G A44G	0.0773
T32C A43G	0.0128
T32C A43T	0.00881
T32C A43C	0.00725
G33C A35C	0.0133
G33C A35G	0.0844
G33C A35T	0.0199
G33A A43C	0.0816
G33A A43T	0.0914
G33A A43G	0.0533

Variant	fraction ligated
G33C G34T	0.00568
G33C G34C	0.00483
G33C G34A	0.18
A35G G42A	0.0121
A35G G42T	0.00567
A35G G42C	0.00281
T32C T36G	0.00825
T32C T36C	0.00318
T32C T36A	0.00145
T32A A35G	0.0076
T32A A35T	0.00186
T32A A35C	0.00546
G33A T36A	0.0257
G33A T36C	0.0229
G33A T36G	0.0572
G34T G37T	0.00356
G34T G37A	0.00473
G34T G37C	0.00496
G34A G42C	0.00302
G34A G42T	0.00582
G34A G42A	0.0111
T32G A43C	0.00832
T32G A43T	0.0529
T32G A43G	0.196

Variant	fraction ligated
G33C G42C	0.011
G33C G42A	0.132
G33C G42T	0.0409
G33T A35C	0.0181
G33T A35G	0.0792
G33T A35T	0.0191
T36G G37C	0.0044
T36G G37A	0.00776
T36G G37T	0.00976
A35G G37C	0.0017
A35G G37A	0.00295
A35G G37T	0.00458
A35G A43C	0.00434
A35G A43G	0.00504
A35G A43T	0.0109
A31T G34A	0.071
A31T G34T	0.0067
A31T G34C	0.00659
A31T A43T	0.215
A31T A43C	0.157
A31T A43G	0.157
G33C A43G	0.0324
G33C A43C	0.0394
G33C A43T	0.0544

Variant	fraction ligated
T36A A44G	0.00875
T36A A44C	0.00684
T36A A44T	0.012
T32G G37T	0.00459
T32G G37A	0.00205
T32G G37C	0.0035
A35T A44T	0.00912
A35T A44C	0.00563
A35T A44G	0.0054
G34C G37T	0.00343
G34C G37A	0.00257
G34C G37C	0.00307
G34A T36G	0.0395
G34A T36C	0.0256
G34A T36A	0.0315
G34T A43C	0.00412
G34T A43G	0.0028
G34T A43T	0.00646
G33A G34C	0.00342
G33A G34T	0.00656
G33A G34A	0.334
G33C G37T	0.01
G33C G37C	0.00381
G33C G37A	0.00724

Variant	fraction ligated
T32G A44G	0.0444
T32G A44C	0.067
T32G A44T	0.0536
G34T G42T	0.00241
G34T G42A	0.00242
G34T G42C	0.00101
G34C A35G	0.00539
G34C A35T	0.00667
G34C A35C	0.00352
T36C G42A	0.00494
T36C G42C	0.00306
T36C G42T	0.00209
G33T G42C	0.0103
G33T G42T	0.0256
G33T G42A	0.0913
T32G A35C	0.00432
T32G A35G	0.00546
T32G A35T	0.00401
T36A G37C	0.00357
T36A G37A	0.00486
T36A G37T	0.0153
G33T T36C	0.0104
G33T T36G	0.0372
G33T T36A	0.0253

Variant	fraction ligated
G33C A44C	0.383
G33C A44T	0.598
G33C A44G	0.497
A31T G42T	0.193
A31T G42A	0.495
A31T G42C	0.0234
A35T G42T	0.00285
A35T G42A	0.00343
A35T G42C	0.00256
G34T T36C	0.00276
G34T T36A	0.00722
G34T T36G	0.00275
G37C A43G	0.00302
G37C A43T	0.00493
G37C A43C	0.00193
A35G T36A	0.00856
A35G T36C	0.00252
A35G T36G	0.00747
G33A A44C	0.479
G33A A44G	0.576
G33A A44T	0.553
A35T T36A	0.0108
A35T T36C	0.00257
A35T T36G	0.00748

Variant	fraction ligated
T36C A43C	0.00423
T36C A43T	0.00367
T36C A43G	0.00496
A31T G37A	0.00615
A31T G37T	0.0157
A31T G37C	0.00621
G34A A35G	0.00813
G34A A35C	0.00719
G34A A35T	0.0147
T32A A44C	0.0377
T32A A44T	0.163
T32A A44G	0.0595
A35C G37C	0.00352
A35C G37A	0.00266
A35C G37T	0.00578
T32C G33C	0.0121
T32C G33A	0.0169
T32C G33T	0.0247
T32G G33C	0.00893
T32G G33A	0.0116
T32G G33T	0.0125
A35T G37A	0.00299
A35T G37C	0.00461
